Data reported in patent publication US20230071609A1 (Genentech, published 2023).

Assays:
[1] = target: T1, circulating APOL1 in normal human serum (human, UniProt O14791 28-398); assay: cell-based or functional assay
T1 sequence (looked up): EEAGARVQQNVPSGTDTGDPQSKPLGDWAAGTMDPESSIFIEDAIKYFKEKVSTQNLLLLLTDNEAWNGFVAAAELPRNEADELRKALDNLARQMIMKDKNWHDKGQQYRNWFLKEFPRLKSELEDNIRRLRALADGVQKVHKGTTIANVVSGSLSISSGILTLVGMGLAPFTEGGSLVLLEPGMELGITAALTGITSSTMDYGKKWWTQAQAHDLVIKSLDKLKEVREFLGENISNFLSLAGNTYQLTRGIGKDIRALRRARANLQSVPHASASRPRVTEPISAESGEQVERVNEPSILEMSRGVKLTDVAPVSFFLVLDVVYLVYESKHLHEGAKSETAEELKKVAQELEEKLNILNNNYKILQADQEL

[2] = target: T2, iAPOL1-G0 in podocytes (EIK variant, doxycycline-inducible, in APOL1 KO podocytes) (human, UniProt O14791 29-398); assay: immunoelectron microscopy, iAPOL1-G0 podocytes, 25 µg/ml
T2 construct: Stably re-expressed untagged APOL1 isoform A in APOL1 KO clone 89401-3; also called iAPOL1-G0 podocytes; iAPOL1 podocytes
T2 chain: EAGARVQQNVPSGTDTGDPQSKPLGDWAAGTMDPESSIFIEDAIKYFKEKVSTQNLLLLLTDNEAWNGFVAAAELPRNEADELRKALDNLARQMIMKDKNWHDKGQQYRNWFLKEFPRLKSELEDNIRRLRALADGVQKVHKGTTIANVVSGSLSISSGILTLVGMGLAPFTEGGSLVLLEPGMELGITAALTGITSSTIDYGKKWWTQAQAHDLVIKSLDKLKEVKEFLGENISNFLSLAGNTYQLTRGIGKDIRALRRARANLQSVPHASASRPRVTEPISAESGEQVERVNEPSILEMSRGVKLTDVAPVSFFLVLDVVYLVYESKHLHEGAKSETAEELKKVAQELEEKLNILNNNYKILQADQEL

APOL6-myc-FLAG = target: T3, APOL6-myc-FLAG (human, UniProt Q9BWW8 1-343); assay: immunofluorescence on transfected COS cells; grade (also no cross-reaction by western blot)
T3 construct: whole, on cells; In fixed, permeabilized transfected COS cells; untagged APOL6 in the western blots; not shown: C-terminal myc-FLAG tag
T3 sequence (looked up): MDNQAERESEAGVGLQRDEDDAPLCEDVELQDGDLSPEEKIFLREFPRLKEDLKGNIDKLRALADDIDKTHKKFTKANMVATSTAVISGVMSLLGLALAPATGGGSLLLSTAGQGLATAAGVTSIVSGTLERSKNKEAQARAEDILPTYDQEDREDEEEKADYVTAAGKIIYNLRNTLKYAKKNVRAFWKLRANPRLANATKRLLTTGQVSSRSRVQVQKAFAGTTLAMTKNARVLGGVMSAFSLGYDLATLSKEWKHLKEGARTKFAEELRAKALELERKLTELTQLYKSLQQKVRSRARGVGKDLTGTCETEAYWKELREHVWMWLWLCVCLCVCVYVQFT
From the text: COS cells were transfected as in FIG. 31A except APOL1 and APOL2 were also C-terminally myc-FLAG tagged. Overlays of APOL with epitope tags: either mouse anti-FLAG-M2 or mouse anti-myc 9E10 for anti-APOL1 rabmabs; or rabbit anti-Myc 71D10 in conjunction with mouse anti-APOL1. Signals indicate the two antibodies overlap (i.e. anti-APOL1 cross-reacts with that APOL); signals (epitope tag only) indicate no cross-reactivity. Alexa647 anti-rabbit or mouse were used for the tags to rule out the possibility that any colocalization was a bleed-through artifact. Sparsely transfected areas were imaged to permit evaluation of background staining in adjacent untransfected cells—DAPI nuclear staining identifies both untransfected and transfected cell nuclei. […] Note that none of the antibodies cross-reacted with the more distantly related APOL6. *, APOL2-myc-FLAG is presumably misfolded, since it is not as cross-reactive as untagged APOL2 (compare FIG. 31A) with several antibodies. Commercial antibodies are Sigma HPA018885, Epitomics EPR2907 (2) (Epito) and Proteintech 11486-2-AP (Ptech).
Cells were plated on LabTekII (Nalge Nunc 154534) slides and fixed at 70-100% confluency. For mAb screening, cells were fixed/permeabilized for 5 min in −20° C. methanol (EMD MX0485-6). […]

B1: antibody 3.7D6 (antibody, V domains shown)
VH: QIQLVQSGPDLKKPGETVKISCRTSGYAFTNYGVNWVKQAPGKGLKWMGWINTNTGQTTYAEEFRGRFAISLETSASTAFLTISNLKNEDSATYFCARLIYDGDYISSDFWGQGTTLTVSS
VL: DIQMTQSPDSLSASVGETVTITCGASENIYGALNWYQRKQGKSPQLLIYGATNLADGMSSRFSGSRSGRQYSLKISSLHPDDVATYYCQNALSMPYTFGGGTKLEIKR
notes: Mouse mAb, cloned as murine IgG2a LALAPG; those versions are not written separately; also called PFD antibody 3.7D6
- IC50 of blocking of serum APOL1-mediated trypanolysis (Alamar Blue) [1]: 500 pM

B2: rabbit monoclonal antibody 5.17D12 (antibody, V domains shown)
VH: QSLEESGGDLVKPGASLTLTCTASGFSFSSNYYMCWVRQAPGKGLEWIACVYVGSGGSTYYASWAKGRFTFSKTSSTTWTLQMTSLTAADTATYFCARDLSYAGDLWGPGTLVTVSS
VL: DPVMTQTPASVSEPVGGTVTINCQASESISSYLAWYQQKPGQPPKLLIYGASNLASGVPSRFKGSGSGTEYTLTISDLECDDAATYYCQSAYYSNSGGHAFGGGTEVVVKG
notes: Rabbit mAb (Method #5), recombinant; also called rabmab 5.17D12
- binding result [2]: binds

B3: antibody 4.12E5 (antibody, V domains shown)
VH: EVQLQQSGPELVKTGASVKISCKASGYSFTGYFMHWVKQSHGKSLEWIGYISCYNGASVYNQRFKGKATFTIDTSSSTAYMQFNSLTSEDSAVYYCARDVLRYPRYAVDYWGQGTSVTVSS
VL: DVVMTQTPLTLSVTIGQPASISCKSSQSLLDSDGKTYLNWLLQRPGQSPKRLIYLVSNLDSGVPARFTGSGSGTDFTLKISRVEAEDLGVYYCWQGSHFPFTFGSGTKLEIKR
notes: Mouse mAb, cloned as murine IgG2a LALAPG
- binding result (APOL6-myc-FLAG): no binding (tested: 1 µg/ml)
